Some results are limits rather than exact numbers.

Experiment [1] has as its target T1, SIGLEC-8 transiently expressed on cells (UniProt Q9NYZ4 17-499, limits assumed).
T1 construct: whole, on cells; Two cassettes are described (P2A mVenus and direct mVenus fusion); also called the transient line; pTT5-SIGLEC-8 P2A mVenus
Put plainly: cell binding titration, transient SIGLEC-8 line.

The next experiment has as its target T2, SIGLEC-3.
T2 construct: also called CD33
Put plainly: SPR cross-reactivity table. The method in brief:
(§1)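 Values are dissociation constants or binding results, one per protein tested, from surface plasmon resonance run on a Carterra instrument. The antibodies, raised against SIGLEC-8, were assessed for cross-reactivity with related SIGLEC proteins. They had been selected from synthetic libraries over four rounds of bead-based panning, screened by clonal ELISA, then expressed and purified.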

The next experiment addresses T3, SIGLEC-7.
T3 construct: also called p75/AIRM1
Put plainly: SPR cross-reactivity table. In outline:
as §1

Another experiment concerns the target T4, SIGLEC-6.
T4 construct: also called OB-BP-1
Put plainly: SPR cross-reactivity table. The method in brief: as §1

A further experiment has as its target T5, SIGLEC-5 (limits assumed).
T5 construct: also called OB-BP-2
T5 receptor: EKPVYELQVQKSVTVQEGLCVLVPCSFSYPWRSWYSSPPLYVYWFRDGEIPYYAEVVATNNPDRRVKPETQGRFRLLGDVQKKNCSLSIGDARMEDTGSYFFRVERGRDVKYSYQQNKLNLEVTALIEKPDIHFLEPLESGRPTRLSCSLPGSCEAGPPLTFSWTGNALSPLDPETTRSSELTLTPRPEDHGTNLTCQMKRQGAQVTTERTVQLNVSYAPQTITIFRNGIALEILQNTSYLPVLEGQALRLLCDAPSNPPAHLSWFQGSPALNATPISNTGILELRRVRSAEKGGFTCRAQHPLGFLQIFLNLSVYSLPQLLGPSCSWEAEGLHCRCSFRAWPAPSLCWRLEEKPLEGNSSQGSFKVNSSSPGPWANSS
Put plainly: SPR cross-reactivity table. The method in brief: as §1

In the next experiment the target is T6, SIGLEC-2.
T6 construct: also called CD22
Kind of experiment: SPR cross-reactivity table. The method in brief: as §1

Experiment [2] deals with T1, SIGLEC-8 transiently expressed on cells. Put plainly: flow cytometry titration on cells transiently expressing SIGLEC-8 and on parental Expi293. Background: In flow cytometry, cells or beads pass a laser one at a time.
Experiment [3] addresses T7, Sialic acid-binding immunoglobulin-like lectin 8 (SIGLEC-8), antigen of the Carterra SPR studies (UniProt Q9NYZ4 17-363, limits assumed). Kind of experiment: Carterra SPR kinetics, summary table. In outline:
(§2)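 Binding of antibodies to SIGLEC-8 was followed by surface plasmon resonance on a Carterra instrument to obtain rate constants and dissociation constants. Before these kinetic runs, clones from synthetic antibody libraries were selected by four rounds of bead-based panning and clonal ELISA, then expressed and purified.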
In general terms: Surface plasmon resonance follows binding to a sensor surface in real time, without labels.

Experiment [4] has as its target T7, Sialic acid-binding immunoglobulin-like …. Put plainly: Carterra SPR. The method in brief: as §2
Experiment [5] deals with T8, CD117 transiently expressed on Expi293 cells (UniProt P10721 26-976, limits assumed).
T8 construct: whole, on cells; Two cassettes are described (P2A mVenus and direct mVenus fusion); also called CD117 transient cells; the transient cell line
Put plainly: flow cytometry titration on CD117 transient cells and on parental Expi293. How it is done: The transient expression of CD117 was validated with a control antibody, Expi293 (FIGS. 17A-17B). Expi293, […], was transiently transfected with CD117 48-hours post-transfection. The secondary antibody used was APC Goat anti-human IgG (diluted 1:400). 100,000 cells per well were blocked with 1×PBS+0.5% BSA for 1 hour, stained with 100 μL of the primary antibody for 1 hour, and stained with the secondary antibody for one hour, all with 3× washes in between each staining.

A further experiment concerns the target T9, cyno CD117 (Macaca fascicularis, UniProt A0A7N9CP24).
T9 construct: antigen of the Carterra SPR kinetics; also called cynomolgus monkey CD117
Put plainly: Carterra SPR, cyno CD117. The method, then:
(§3) To further evaluate the antibodies discovered during the screens, 21 clones were selected for detailed characterization and were analyzed for target binding kinetics by a Carterra SPR instrument. The binding kinetics of the anti-CD117 antibodies for human CD117, cynomolgus monkey CD117, and murine CD117 are shown in FIG. 29A-29B.

The target in experiment [6] is T8, CD117 transiently expressed on Expi293 …. Kind of experiment: FACS, MFI expressing / parental cells.
The target in experiment [7] is CD117-GFP transiently overexpressed in HEK293T cells (UniProt P10721 26-976). Kind of experiment: cell-based or functional assay.
Experiment [8] deals with T10, Cluster of differentiation 117 (CD117), antigen of epitope binning and ELISA (UniProt P10721 26-520, limits assumed).
T10 construct: also called tyrosine-protein kinase KIT; mast/stem cell growth factor receptor (SCFR)
Kind of experiment: Carterra SPR, human CD117. How it is done: as §3

Experiment [9] addresses T8, CD117 transiently expressed on Expi293 …. Kind of experiment: FACS cell binding, Expi293 transiently expressing CD117.
The target of another experiment is T11, mouse CD117 (mouse, UniProt P05532).
T11 construct: antigen of the Carterra SPR kinetics; also called murine CD117
T11 sequence (receptor, looked up): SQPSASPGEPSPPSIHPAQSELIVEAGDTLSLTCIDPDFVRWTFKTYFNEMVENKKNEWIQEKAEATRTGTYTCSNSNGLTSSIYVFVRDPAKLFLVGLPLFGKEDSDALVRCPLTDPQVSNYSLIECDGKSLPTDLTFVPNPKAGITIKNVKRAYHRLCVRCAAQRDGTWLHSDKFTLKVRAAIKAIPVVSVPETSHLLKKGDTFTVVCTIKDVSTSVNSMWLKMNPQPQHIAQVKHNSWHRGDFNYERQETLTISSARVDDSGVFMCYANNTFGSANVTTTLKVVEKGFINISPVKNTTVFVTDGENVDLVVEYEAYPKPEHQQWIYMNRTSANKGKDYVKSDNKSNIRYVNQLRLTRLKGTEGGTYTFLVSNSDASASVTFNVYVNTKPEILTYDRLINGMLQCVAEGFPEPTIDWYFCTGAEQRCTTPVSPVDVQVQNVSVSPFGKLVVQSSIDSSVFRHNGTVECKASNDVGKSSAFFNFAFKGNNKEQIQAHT
Kind of experiment: Carterra SPR, mouse CD117. The method, then:
as §3

The target of experiment [10] is T7, Sialic acid-binding immunoglobulin-like …. Put plainly: Carterra SPR kinetics, sensorgram panel. In outline:
as §2

The target is the same in experiment [11]. Put plainly: Carterra SPR kinetics, sensorgram panel. In outline:
as §2
This is another data set of the same source.

T1 sequence (Q9NYZ4 17-499 limits assumed): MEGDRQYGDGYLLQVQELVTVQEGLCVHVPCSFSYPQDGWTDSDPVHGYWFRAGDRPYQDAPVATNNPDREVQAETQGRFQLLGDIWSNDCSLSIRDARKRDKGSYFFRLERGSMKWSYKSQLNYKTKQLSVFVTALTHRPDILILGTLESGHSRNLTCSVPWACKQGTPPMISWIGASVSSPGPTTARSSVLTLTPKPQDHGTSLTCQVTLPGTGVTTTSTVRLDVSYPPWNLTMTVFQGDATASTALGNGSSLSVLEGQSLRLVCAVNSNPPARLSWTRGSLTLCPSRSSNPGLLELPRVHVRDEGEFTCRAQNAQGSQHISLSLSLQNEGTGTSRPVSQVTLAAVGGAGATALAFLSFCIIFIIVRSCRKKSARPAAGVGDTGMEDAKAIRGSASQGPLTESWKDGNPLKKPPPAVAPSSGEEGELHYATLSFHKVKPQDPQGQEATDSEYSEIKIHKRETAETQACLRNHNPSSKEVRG
T10 sequence (P10721 26-520 limits assumed): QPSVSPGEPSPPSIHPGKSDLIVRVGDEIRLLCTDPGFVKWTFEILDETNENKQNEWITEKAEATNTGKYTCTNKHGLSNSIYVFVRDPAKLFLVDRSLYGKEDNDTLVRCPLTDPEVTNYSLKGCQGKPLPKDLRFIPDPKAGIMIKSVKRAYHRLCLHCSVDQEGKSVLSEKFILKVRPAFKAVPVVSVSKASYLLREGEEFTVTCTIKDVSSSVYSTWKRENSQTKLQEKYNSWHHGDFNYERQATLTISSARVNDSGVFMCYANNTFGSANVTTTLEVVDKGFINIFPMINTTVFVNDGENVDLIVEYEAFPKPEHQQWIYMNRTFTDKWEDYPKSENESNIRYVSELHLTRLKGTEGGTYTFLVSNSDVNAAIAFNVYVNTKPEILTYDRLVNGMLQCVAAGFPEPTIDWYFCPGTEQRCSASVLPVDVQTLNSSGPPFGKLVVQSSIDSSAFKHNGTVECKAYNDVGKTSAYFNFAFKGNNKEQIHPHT
T7 sequence (Q9NYZ4 17-363 limits assumed): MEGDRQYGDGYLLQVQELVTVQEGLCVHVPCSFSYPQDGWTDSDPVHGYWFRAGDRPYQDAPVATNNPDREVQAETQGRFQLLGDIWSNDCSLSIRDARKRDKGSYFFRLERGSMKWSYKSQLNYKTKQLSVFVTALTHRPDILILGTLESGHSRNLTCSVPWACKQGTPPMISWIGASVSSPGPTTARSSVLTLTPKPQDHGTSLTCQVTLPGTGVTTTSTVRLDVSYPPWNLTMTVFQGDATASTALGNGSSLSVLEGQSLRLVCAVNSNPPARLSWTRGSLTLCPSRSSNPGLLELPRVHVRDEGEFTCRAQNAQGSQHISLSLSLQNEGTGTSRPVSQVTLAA
T8 sequence (P10721 26-976 limits assumed): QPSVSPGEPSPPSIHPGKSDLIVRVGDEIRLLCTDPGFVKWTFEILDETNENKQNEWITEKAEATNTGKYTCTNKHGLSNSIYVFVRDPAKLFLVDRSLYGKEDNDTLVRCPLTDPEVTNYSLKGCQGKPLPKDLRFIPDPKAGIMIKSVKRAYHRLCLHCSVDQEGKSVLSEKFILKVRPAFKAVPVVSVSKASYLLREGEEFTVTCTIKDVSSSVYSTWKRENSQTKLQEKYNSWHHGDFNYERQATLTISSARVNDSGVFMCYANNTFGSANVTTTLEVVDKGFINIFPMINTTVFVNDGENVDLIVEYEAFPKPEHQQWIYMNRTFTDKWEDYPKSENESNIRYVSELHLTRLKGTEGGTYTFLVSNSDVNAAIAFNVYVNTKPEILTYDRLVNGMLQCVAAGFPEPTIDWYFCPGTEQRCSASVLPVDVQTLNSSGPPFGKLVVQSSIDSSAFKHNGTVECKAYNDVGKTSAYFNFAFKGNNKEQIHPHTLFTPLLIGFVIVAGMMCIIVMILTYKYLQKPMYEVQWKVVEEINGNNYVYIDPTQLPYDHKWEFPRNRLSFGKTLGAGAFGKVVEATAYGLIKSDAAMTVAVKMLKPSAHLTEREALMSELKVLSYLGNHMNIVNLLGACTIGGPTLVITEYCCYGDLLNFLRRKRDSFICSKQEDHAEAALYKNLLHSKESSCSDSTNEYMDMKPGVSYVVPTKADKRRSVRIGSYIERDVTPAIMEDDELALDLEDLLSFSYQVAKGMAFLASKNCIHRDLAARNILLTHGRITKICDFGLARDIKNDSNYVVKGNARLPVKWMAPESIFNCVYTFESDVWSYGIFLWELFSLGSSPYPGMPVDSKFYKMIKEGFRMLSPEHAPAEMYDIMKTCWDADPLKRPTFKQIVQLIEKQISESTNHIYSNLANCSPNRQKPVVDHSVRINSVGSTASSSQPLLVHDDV
T9 sequence (A0A7N9CP24 entry or part of it): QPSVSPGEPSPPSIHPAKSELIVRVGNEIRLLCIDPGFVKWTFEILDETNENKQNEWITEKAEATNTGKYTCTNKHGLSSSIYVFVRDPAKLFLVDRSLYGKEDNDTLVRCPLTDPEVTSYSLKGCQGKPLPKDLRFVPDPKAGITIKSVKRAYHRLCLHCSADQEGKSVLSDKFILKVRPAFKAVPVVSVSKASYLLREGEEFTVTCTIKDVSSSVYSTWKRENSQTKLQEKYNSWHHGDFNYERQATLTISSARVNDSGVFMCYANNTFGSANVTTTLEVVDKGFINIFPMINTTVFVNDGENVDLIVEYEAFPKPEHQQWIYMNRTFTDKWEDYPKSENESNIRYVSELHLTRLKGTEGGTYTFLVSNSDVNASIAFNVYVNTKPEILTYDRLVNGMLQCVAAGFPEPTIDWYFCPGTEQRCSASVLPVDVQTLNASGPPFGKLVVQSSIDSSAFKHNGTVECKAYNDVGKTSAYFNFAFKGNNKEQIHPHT
T4 sequence (receptor, as listed by the source limits assumed): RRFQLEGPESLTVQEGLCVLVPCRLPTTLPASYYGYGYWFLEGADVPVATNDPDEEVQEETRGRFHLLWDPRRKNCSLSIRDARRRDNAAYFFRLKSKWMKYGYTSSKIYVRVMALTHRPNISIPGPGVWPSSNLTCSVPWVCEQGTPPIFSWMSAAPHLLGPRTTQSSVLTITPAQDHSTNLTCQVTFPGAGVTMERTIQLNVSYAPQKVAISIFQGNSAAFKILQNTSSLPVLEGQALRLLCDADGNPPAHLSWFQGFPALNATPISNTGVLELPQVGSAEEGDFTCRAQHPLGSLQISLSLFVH
T2 sequence (receptor, as listed by the source limits assumed): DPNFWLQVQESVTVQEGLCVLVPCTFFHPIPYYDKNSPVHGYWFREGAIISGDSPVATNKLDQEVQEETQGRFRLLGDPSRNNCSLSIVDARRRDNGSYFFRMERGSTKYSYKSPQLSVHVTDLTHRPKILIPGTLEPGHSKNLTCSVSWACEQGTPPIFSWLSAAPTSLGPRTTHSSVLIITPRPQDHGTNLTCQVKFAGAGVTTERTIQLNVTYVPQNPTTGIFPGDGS
T6 sequence (chain, as listed by the source limits assumed): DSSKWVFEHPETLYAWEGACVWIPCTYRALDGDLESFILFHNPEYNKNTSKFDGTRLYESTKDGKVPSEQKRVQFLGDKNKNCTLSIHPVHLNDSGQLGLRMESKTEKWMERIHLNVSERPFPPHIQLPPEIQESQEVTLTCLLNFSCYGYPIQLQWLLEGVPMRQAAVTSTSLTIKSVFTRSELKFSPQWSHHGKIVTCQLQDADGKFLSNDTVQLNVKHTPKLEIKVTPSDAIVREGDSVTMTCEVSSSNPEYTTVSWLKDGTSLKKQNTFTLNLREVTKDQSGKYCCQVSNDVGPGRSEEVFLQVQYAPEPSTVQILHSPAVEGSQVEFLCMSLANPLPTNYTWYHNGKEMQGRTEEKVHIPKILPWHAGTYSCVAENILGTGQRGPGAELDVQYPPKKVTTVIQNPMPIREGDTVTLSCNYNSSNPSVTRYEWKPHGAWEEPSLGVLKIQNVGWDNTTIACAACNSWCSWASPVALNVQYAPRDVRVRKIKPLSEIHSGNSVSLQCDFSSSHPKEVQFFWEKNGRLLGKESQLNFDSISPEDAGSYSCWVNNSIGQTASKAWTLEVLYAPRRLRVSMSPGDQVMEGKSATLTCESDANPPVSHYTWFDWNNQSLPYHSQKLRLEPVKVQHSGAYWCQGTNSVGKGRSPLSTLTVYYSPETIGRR
T3 sequence (receptor, as listed by the source limits assumed): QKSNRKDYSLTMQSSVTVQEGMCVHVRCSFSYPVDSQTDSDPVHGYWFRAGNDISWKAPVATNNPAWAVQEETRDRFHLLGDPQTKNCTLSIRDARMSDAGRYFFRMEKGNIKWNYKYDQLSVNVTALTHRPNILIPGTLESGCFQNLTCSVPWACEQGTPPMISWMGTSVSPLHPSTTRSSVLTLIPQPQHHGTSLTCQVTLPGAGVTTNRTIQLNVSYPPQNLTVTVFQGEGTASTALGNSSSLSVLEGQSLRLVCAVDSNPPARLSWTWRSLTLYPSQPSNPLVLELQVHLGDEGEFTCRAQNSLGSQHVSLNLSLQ

B1: SIGLEC-8-1 (antibody, human IgG1, kappa, V domains shown)
VH: EVQLLESGGGLVQPGGSLRLSCAASGFTFSNFPMSWVRQAPGKGLEWVSSISGTGSSTYYADSVKGRFTISRDNSKNTLYLQMNSLRAEDTAVYYCVREGRYFYYAMDVWGQGTLVTVSS
VL: DIQMTQSPSSLSASVGDRVTITCRASQNIAGYLNWYQQKPGKAPKLLIYAASNLHTGVPSRFSGSGSGTDFTLTISSLQPEDFATYYCQQSYSTPLAFGGGTKVEIKR
notes: tested as expressed and purified mAb
By EC50 is commonly meant the concentration at which the effect is half-maximal. A low value points to an effect from little substance. As usually defined, the Kd is the concentration at which binding is half-saturated. Read a high Kd as a looser complex. In general, EC50 (read off the curve) refers to the concentration needed to bring the measured effect to its halfway point. For orientation: koff means the rate constant with which the complex falls apart. High values mean fast dissociation, low ones slow dissociation. The kon is a measure of how fast the partners come together. The molecule B1 registered a concentration for a half-maximal effect (EC50) in experiment [1] of 1.26 nM. Further, the equilibrium dissociation constant (Kd) amounted to 135 nM in the experiment with SIGLEC-3; 5240 nM in the experiment with SIGLEC-7; 7 nM with SIGLEC-6; 5.8 nM with SIGLEC-5; 196 nM in the experiment with SIGLEC-2; 0.292 nM in [4]. Also, the concentration giving a half-maximal response (EC50 (read off the curve)) in [2] is about 5 nM. The same molecule returned a koff in [3] of 4.38e-05 s⁻¹. Besides, the kon in experiment [3] is 150000 M⁻¹ s⁻¹.

B2: CD117-2 (antibody, human IgG1, kappa, V domains shown)
VH: EVQLLESGVGLVQPGGSLRLSCAASGFSFGSYAMSWVRQAPGKGLEWVSSISGSGGTTYYADSVKGRFTISRDNSKNTLYLQMNSLRAEDTAVYYCARDPDDYGDYYFDYWGQGTLVTVSS
VL: DIQMTQSPSSLSASVGDRVTITCRASQSIGEYLNWYQQKPGKAPKLLIYATSSLQRGVPSRFSGSGSGTDFTLTISSLQPEDFATYYCQQSHTTPYTFGGGTKVEIKR
notes: detected with anti-human IgG in FACS
Take B2: the concentration for a half-maximal effect (EC50 (read off the curve)) in [5] was about 1 nM. In the experiment with cyno CD117, binding was characterised by a dissociation constant (Kd) of 607 nM, the koff amounted to 0.201 s⁻¹ and the kon is 331000 M⁻¹ s⁻¹. Moreover, the “MFI Ratio” value in experiment [6] worked out at 30.7. Also, in [7], the “IC50, inhibition of the SCF-stimulated SRF reporter signal (FFLuc/RLuc); same row prints log(IC50) -9.344 and Span -0.2266” value was found to be 4.53e-10 M. In experiment [8], this molecule registered a Kd of 208 nM, a koff of 0.136 s⁻¹ and a kon of 655000 M⁻¹ s⁻¹. In experiment [9], this molecule yielded a half-maximal effective concentration (EC50) of 0.742 nM. In the experiment with mouse CD117, this molecule displayed a Kd of 13.7 nM, an off-rate (koff) of 0.00222 s⁻¹ and a kon of 161000 M⁻¹ s⁻¹.

B3: SIGLEC-8-27 (antibody, human IgG1, kappa, V domains shown)
VH: EVQLLESGGGLVQPGGSLRLSCAASGFTFSNHVMSWVRQAPGKGLEWVSAISGSGASTYYADSVKGRFTISRDNSKNTLYLQMNSLRAEDTAVYYCARAPIAVAGTADHWGQGTLVTVSS
VL: DIQMTQSPSSLSASVGDRVTITCRASQSIGSDLNWYQQKPGKAPKLLIYGASRLESGVPSRFSGSGSGTDFTLTISSLQPEDFATYYCQQTFTNTPLTFGGGTKVEIKR
notes: as for B1
B3 showed an EC50 in experiment [1] of 904 nM. In experiment [10], the binding result is “no binding”.

B4: SIGLEC-8-40 (antibody, human IgG1, kappa, V domains shown)
VH: EVQLLESGGGLVQPGGSLRLSCAASGFTFSFFDMMWVRQAPGKGLEWVSQISETGRRTYYADSVKGRFTISRDNSKNTLYLQMNSLRAEDTAVYYCATAEDEQGYDYWGQGTLVTVSS
VL: DIQMTQSPSSLSASVGDRVTITCRASQSINFWLRWYQQKPGKAPKLLIYGTTSLESGVPSRFSGSGSGTDFTLTISSLQPEDFATYYCQQTATWPFTFGQGTKVEIKR
notes: tested as expressed and purified mAb; also called SIBLEC8-40
B4: the midpoint of the response in [1], the EC50, lay at 0.609 nM. This molecule also gave a koff in experiment [3] of 1e-05 s⁻¹. Moreover, the kon in experiment [3] was determined as 444000 M⁻¹ s⁻¹. Moreover, the results for the Kd in experiment [11] and in experiment [4] were under 0.023 nM and 0.0225 nM, respectively.

Source of the values: patent publication US20260001953A1 (TWIST BIOSCIENCE, published 2026).
